# According to US20210024646A1 (published 2021):
# Substitutions are numbered along the chain they refer to. “And” between values parts separate entries of the source, which are not always exact repeats. Equal entries are not always repeated.
# T1: extracellular domain of human CD73 protein (CD73-ECD), C-terminus polyhistidine-tagged (UniProt P21589 27-547)
# T1 chain: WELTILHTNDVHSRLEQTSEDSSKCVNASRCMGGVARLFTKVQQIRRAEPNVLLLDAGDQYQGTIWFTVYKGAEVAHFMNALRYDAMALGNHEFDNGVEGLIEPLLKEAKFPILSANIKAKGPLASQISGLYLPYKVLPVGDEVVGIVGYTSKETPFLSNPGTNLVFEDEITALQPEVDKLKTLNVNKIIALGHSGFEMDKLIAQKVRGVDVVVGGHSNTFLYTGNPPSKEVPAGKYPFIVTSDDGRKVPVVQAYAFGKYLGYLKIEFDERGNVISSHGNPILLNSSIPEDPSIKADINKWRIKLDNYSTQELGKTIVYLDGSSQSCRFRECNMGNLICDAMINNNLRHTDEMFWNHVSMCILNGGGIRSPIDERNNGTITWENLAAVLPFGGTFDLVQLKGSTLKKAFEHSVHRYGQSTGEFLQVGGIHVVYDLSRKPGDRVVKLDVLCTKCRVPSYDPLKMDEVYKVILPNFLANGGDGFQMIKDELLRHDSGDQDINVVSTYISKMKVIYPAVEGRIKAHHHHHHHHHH
# T2: Carbon-terminal polyhistidine-labeled recombinant cynomolgus monkey CD73 enzyme (cynomolgus monkey, UniProt A0A2K5V5U7 1-547)
# T2 chain: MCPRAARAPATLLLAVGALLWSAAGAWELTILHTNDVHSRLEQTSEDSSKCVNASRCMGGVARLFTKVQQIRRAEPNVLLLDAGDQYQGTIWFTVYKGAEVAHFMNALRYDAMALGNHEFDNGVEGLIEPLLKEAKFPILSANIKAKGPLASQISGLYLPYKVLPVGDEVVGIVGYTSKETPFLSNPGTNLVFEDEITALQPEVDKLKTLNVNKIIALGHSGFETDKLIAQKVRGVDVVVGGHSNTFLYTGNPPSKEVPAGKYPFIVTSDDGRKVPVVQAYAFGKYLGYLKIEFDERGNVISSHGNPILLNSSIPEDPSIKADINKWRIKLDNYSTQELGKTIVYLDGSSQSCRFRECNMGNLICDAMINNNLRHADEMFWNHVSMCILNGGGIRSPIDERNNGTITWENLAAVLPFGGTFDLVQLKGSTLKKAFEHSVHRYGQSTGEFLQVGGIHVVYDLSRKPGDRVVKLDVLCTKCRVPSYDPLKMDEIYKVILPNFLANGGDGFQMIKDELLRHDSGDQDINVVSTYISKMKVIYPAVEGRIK
# T3: CD73 on the surface of human tumor cells (human, UniProt P21589 27-549)
# T3 chain: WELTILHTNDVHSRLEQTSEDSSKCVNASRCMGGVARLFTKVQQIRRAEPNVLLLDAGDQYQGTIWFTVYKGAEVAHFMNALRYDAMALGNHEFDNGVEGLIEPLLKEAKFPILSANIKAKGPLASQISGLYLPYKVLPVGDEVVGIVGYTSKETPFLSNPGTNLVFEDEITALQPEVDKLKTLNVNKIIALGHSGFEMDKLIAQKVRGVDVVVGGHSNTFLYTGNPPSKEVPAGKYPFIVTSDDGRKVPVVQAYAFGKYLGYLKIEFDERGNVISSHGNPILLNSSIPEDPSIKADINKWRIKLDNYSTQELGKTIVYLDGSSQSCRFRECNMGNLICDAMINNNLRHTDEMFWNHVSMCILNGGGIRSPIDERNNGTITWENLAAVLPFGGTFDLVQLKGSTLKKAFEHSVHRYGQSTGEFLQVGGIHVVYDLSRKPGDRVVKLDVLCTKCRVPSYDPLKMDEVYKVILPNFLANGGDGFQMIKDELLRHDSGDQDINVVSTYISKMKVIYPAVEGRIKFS
# B1: Hu002c-12 (antibody, V domains shown)
# VH: QVQLVQSGAEVKKPGASVKVSCKASGYTLTSYWMHWVRQAPGQGLEWIGEINPSQGRSNYNEKFKSKVTLTVDRSTSTVYMELSSLRSEDTAVYYCARRGVSGNYFDYWGQGTLVTVSS
# VL: DIQMTQSPSSLSASVGDRVTITCKASQDINTYLSWFQQKPGKSPKSLIYRSNILVSGVPSRFSGSGSGQDYTLTISSLQPEDFAIYYCLQYDEFPYTFGGGTKLEI
# B2: Hu002c-11 (antibody, V domains shown)
# VH: B1 VH
# VL: DIQMTQSPSSLSASVGDRVTITCKASQDINTYLSWFQQKPGKSPKSLIYRSNILVSGVPSRFSGSGSGQDYTLTISSLQPEDFATYYCLQYDEFPYTFGGGTKLEIK
# B3: Hu002c-14 (antibody, V domains shown)
# VH: B1 VH with R38K, Q39K
# VL: B2 VL with S43A, G100Q
# B4: Hu001c-31 (antibody, V domains shown)
# VH: QVQLVQSGAEVKKPGASVKVSCKASGYTFTNYYIYWVRQAPGQRLEWIGWIYPGNLNIKYNEKFKGRSTLTADKSASTAYMELSSLRSEDTAVYYCARDDNYAWFAYWGQGTLVTVSS
# VL: DIQMTQSPSSLSASVGDRVTITCKASQDVSTAVAWYQQKPGKAPKLLIYWTNTRHTGVPSRFSGSGSGTDHTLTISSLQPEDFATYYCQQHYSTPFTFGQGTKLEIK
# B5: Hu001c-14 (antibody, V domains shown)
# VH: B4 VH with A24T, I48M, S68V, L70I, K74T
# VL: B4 VL
# B6: Hu001c-25 (antibody, V domains shown)
# VH: B4 VH with S68V, L70I
# VL: B4 VL with A43S
# B7: Hu001c-23 (antibody, V domains shown)
# VH: B4 VH with R38K, A40R, R44G, S68V, L70I
# VL: B4 VL
# B8: Hu001c-28 (antibody, V domains shown)
# VH: B4 VH with A24T, R38K, A40R, R44G, S68V, L70I
# VL: B4 VL with A43S
# B9: Hu001c-30 (antibody, V domains shown)
# VH: B4 VH with R38K, A40R
# VL: B4 VL with H71F
# B10: Hu001c-24 (antibody, V domains shown)
# VH: B4 VH with A24T, R38K, A40R, R44G, S68V, L70I
# VL: B4 VL
# B11: Hu001c-22 (antibody, V domains shown)
# VH: B4 VH with R38K, A40R, S68V, L70I
# VL: B4 VL
# B12: Hu001c-32 (antibody, V domains shown)
# VH: B4 VH with R38K, A40R
# VL: B4 VL
# B13: Hu001c-21 (antibody, V domains shown)
# VH: B4 VH with S68V, L70I
# VL: B4 VL
# B14: mAb002c-VH-QG/VK-SG (antibody, V domains shown)
# VH: QVQLQQPGAELVKPGASVRLSCKASGYTLTSYWMHWVKKRPGQGLEWIGEINPSQGRSNYNEKFKSKATLTVDRSSSTVYMQLGSLTSEDSAVYYCARRGVSGNYFDYWGQGTTLTVSS
# VL: DIKMTQSPSSMYASLGERVTMTCKASQDINTYLSWFQQKPGKSPKTLIYRSNILVSGVPSRFSGSRSGQDYYLTITSLEYEDMGIYYCLQYDEFPYTFGGGTKLELK
# Biological target: T1, extracellular domain of human CD73 …
# Assay: ELISA
row,EC50,Binder
1,0.083 nM,B1
2,0.095 nM,B2
3,0.101 nM,B3
4,0.109 nM,B4
5,0.108 nM,B5
6,0.033 nM,B6
7,0.033 nM,B7
8,0.037 nM,B8
9,0.139 nM,B9
10,0.026 nM,B10
11,0.032 nM,B11
12,0.107 nM,B12
13,0.02 nM,B13
14,0.096 nM and 0.103 nM,B14

# Biological target: T1, extracellular domain of human CD73 …
# Assay: enzyme inhibition; left table
row,IC50 [nM],Binder
1,0.06,B5
2,0.3,B6
3,0.03,B7
4,0.03,B8
5,0.02,B10
6,0.03,B11
7,0.12,B13

# Biological target: T2, Carbon-terminal polyhistidine-labeled …
# Assay: enzyme inhibition; left table
row,IC50 [nM],Binder
1,0.11,B5
2,0.34,B6
3,0.07,B7
4,0.03,B8
5,0.04,B10
6,0.08,B11
7,0.37,B13
8,0.044,B14

# Biological target: T1, extracellular domain of human CD73 …
# Assay: enzyme inhibition; right table
row,IC50 [nM],Binder
1,0.057,B1
2,0.06,B2
3,0.058,B3
4,0.12,B4
5,0.06,B5
6,0.04,B7
7,0.128,B9
8,0.03,B10
9,0.07,B12

# Biological target: T2, Carbon-terminal polyhistidine-labeled …
# Assay: enzyme inhibition; right table
row,IC50 [nM],Binder
1,0.058,B1
2,0.065,B2
3,0.056,B3
4,0.28,B4
5,0.1,B5
6,0.07,B7
7,0.132,B9
8,0.04,B10
9,0.11,B12
10,0.055,B14

# Biological target: T3, CD73 on the surface of human tumor cells
# Assay: FACS; NCI-H1299 cells, left table
row,EC50 [nM],Binder
1,0.73,B14

# Biological target: T3, CD73 on the surface of human tumor cells
# Assay: FACS; NCI-H1299 cells, left table
# Remark: another data set of the same source
row,EC50 [nM],Binder
1,1.33,B5
2,1.3,B7
3,1.41,B8
4,1.28,B10
5,1.42,B11

# Biological target: T3, CD73 on the surface of human tumor cells
# Assay: FACS; NCI-H1299 cells, right table
row,EC50 [nM],Binder
1,0.82,B1
2,0.774,B2
3,0.822,B3
4,0.573,B14

# Biological target: T3, CD73 on the surface of human tumor cells
# Assay: FACS; MDA-MB-231 cells, left table
row,EC50 [nM],Binder
1,0.557,B14

# Biological target: T3, CD73 on the surface of human tumor cells
# Assay: FACS; NCI-H1299 cells, right table
# Remark: another data set of the same source
row,EC50 [nM],Binder
1,1.24,B4
2,1.16,B5
3,1.48,B7
4,1.61,B9
5,1.62,B12

# Biological target: T3, CD73 on the surface of human tumor cells
# Assay: FACS; MDA-MB-231 cells, left table
# Remark: another data set of the same source
row,EC50 [nM],Binder
1,0.449,B5
2,0.435,B6
3,0.4,B7
4,0.446,B8
5,0.432,B10
6,0.522,B11
7,0.205,B13

# Biological target: T3, CD73 on the surface of human tumor cells
# Assay: FACS; MDA-MB-231 cells, right table
row,EC50 [nM],Binder
1,0.715,B1
2,0.693,B2
3,0.642,B3
4,0.557,B14

# Biological target: T3, CD73 on the surface of human tumor cells
# Assay: FACS; MDA-MB-231 cells, right table
# Remark: another data set of the same source
row,EC50 [nM],Binder
1,0.514,B4
2,0.626,B5
3,0.593,B7
4,0.695,B9
5,0.608,B12

# Biological target: T3, CD73 on the surface of human tumor cells
# Assay: inhibition of cell-surface CD73 enzyme activity; left panel
row,IC50 [nM],Binder
1,0.448,B14

# Biological target: T3, CD73 on the surface of human tumor cells
# Assay: inhibition of cell-surface CD73 enzyme activity; right panel
row,IC50 [nM],Binder
1,0.498,B1
2,0.445,B2
3,0.437,B3
4,0.429,B14
